The values that follow are results of earlier work, collected in paper PMC8033747.

The series addresses CHMP3 (Homo sapiens) (UniProt Q9Y3E7). As to the kind of experiment: SPR. (In general: SPR reads the build-up and loss of mass on a sensor chip optically.)

CHMP3 (Homo sapiens), sequence (Q9Y3E7 2-222): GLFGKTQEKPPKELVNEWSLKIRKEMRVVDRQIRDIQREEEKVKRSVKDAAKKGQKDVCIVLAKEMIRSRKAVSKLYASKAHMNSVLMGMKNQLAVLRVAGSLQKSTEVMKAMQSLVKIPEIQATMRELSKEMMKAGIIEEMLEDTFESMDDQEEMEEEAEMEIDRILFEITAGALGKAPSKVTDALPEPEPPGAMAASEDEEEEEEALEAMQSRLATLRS
CHMP2B, sequence (Q9UQN3 2-213): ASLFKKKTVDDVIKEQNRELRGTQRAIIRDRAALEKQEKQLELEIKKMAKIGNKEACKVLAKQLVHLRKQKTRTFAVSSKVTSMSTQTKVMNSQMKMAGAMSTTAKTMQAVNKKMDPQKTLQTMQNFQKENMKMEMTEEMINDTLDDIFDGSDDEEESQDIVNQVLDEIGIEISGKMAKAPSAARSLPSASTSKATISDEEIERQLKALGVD
CHMP2A, sequence (O43633 whole entry): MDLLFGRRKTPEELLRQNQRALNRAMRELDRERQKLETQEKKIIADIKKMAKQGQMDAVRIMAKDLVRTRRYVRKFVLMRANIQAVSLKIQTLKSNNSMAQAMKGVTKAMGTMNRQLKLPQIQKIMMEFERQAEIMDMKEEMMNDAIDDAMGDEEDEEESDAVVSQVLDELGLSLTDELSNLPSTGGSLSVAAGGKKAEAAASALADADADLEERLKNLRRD

Turning to CHMP2A (from UniProt O43633), the Kd (usually the equilibrium constant for the complex coming apart) is 3200 nM.
As to CHMP2B (from UniProt Q9UQN3), the Kd is 1400 nM.
